Target: T1, Src protein (p60^src), in vitro translated (UniProt P12931 2-536, limits assumed)
T1 construct: also called c-Src
Assay: in vitro translated Src on Rb-GST fusion proteins; data not shown
Experimental: The same procedure was followed for Rb in vitro binding assays, except that the Rb-GST fusion proteins were incubated in the in vitro translated forms of Rak in NP-40 buffer containing 0.5% fraction V bovine serum albumin (Boehringer Mannheim). After three washes with the same buffer, bound proteins were analyzed by SDS-PAGE and detected by autoradiography. Rak was in vitro translated using the TnT-coupled transcription/translation system (Promega) with 2 ug of the pAlt-Rak plasmid. The Rak (1–152) construct was prepared by digesting the pAlt-Rak plasmid with EcoRI to obtain the 5' EcoRI fragment of Rak.
An in vitro binding reaction was then used to further identify the essential components for the Rak-Rb interaction. In vitro translated Rak was incubated with two Rb-GST fusion proteins, where one encoded amino acids 379–928, spanning the A/B pocket and carboxy-terminus (RbABC), while the other fusion protein encoded amino acids 780–928, and represented only the carboxy-terminus (RbC). The in vitro translated full-length Rak protein bound efficiently to the RbABC fusion protein, and approximately 5-fold less to the RbC protein (FIG. 5B, upper panel). […] As a control, the Src protein was in vitro translated and subjected to the same binding reaction, and no binding of Src to any portion of Rb was detected (data not shown).

Binder	binding result
GST-RbABC, Rb fusion protein encoding amino acids 379-928 (A/B pocket region and COOH-terminal domain) (other, UniProt P06400 379-928, looked up, range 379-928; GST fusion prepared like the Rak fusions; also called RbABC fusion protein; Rb-GST fusion protein; not shown: Glutathione S-transferase encoded by the pGEX-4T plasmid (Pharmacia)) MNTIQQLMMILNSASDQPSENLISYFNNCTVNPKESILKRVKDIGYIFKEKFAKAVGQGCVEIGSQRYKLGVRLYYRVMESMLKSEEERLSIQNFSKLLNDNIFHMSLLACALEVVMATYSRSTSQNLDSGTDLSFPWILNVLNLKAFDFYKVIESFIKAEGNLTREMIKHLERCEHRIMESLAWLSDSPLFDLIKQSKDREGPTDHLESACPLNLPLQNNHTAADMYLSPVRSPKKKGSTTRVNSTANAETQATSAFQTQKPLKSTSLSLFYKKVYRLAYLRLNTLCERLLSEHPELEHIIWTLFQHTLQNEYELMRDRHLDQIMMCSMYGICKVKNIDLKFKIIVTAYKDLPHAVQETFKRVLIKEEEYDSIIVFYNSVFMQRLKTNILQYASTRPPTLSPIPHIPRSPYKFPSSPLRIPGGNIYISPLKSPYKISEGLPTPTKMTPRSRILVSIGESFGTSEKFQKINQMVCNSDRVLKRSAEGSNPPKPLKKLRFDIEGSDEADGSKHLPGESKFQQKLAEMTSTRTRMQKQKMNDSMDTSNKEEK	no binding
GST-RbC, Rb fusion protein encoding amino acids 780-928 (COOH-terminal domain only) (other, UniProt P06400 780-928, looked up, range 780-928; GST fusion prepared like the Rak fusions; also called RbC protein; Rb-GST fusion protein; not shown: Glutathione S-transferase encoded by the pGEX-4T plasmid (Pharmacia)) SPIPHIPRSPYKFPSSPLRIPGGNIYISPLKSPYKISEGLPTPTKMTPRSRILVSIGESFGTSEKFQKINQMVCNSDRVLKRSAEGSNPPKPLKKLRFDIEGSDEADGSKHLPGESKFQQKLAEMTSTRTRMQKQKMNDSMDTSNKEEK	no binding

Reference: US6531296 (UNIVERSITY OF NORTH CAROLINA AT CHAPEL HILL, dated 2003)
